Reference: the supplement of paper PMC6757056
± gives the standard deviation of the averaged measurements.

B1: library; a variant is named by its letters at N, in order (parent)
chain: GCUGUCACCGAGAAACUGUGAAGUAUAUCUUAAACCUGGGCACUUAAAAGAUAUAUGGAGUUAGUAGUGCAACCUGCUCGGUCUGAUGAGUCCNNNNNNGGACGAAACAGC

How the values were obtained:
cyclic di-GMP [1] = variants of: B1; assay: normalized RNA/DNA level without ligand (relative to sTRSVctl = 100) (log10 (% of sTRSVctl)); HEK293T; ligand: cyclic di-GMP (c-di-GMP-II aptamer); higher = less ribozyme self-cleavage, higher mRNA level; details: reporter: mCherry (pCS4076), ligand present: no
Procedure, shortened: (§1)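 For each 6-well well, 4 µg of library plasmid encoding mCherry-linked ribozyme switches, or eGFP-linked ones in some ligand experiments, was transfected into HEK293T. Any ligand was added 1 h before transfection, and RNA was extracted with EDTA 72 h after it, then reverse-transcribed, amplified, barcoded and sequenced. RNA level was obtained by dividing RNA reads by DNA reads, normalizing to a spiked-in non-cleaving sequence or to the top sequences, then scaling and log-transforming. The top set was 25 sequences, scaling was ×100 with log10, and ≥100 DNA reads were required.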

cyclic di-GMP [2] = variants of: B1; assay: normalized RNA/DNA level with ligand (relative to sTRSVctl = 100) (log10 (% of sTRSVctl)); HEK293T; ligand: cyclic di-GMP (c-di-GMP-II aptamer); ligand concentration (+) RNA-Seq: 1 mM; higher = less ribozyme self-cleavage, higher mRNA level; details: reporter: mCherry (pCS4076), ligand present: yes
Procedure, shortened: as §1

| Variant | normalized RNA/DNA level without ligand (log10) (cyclic di-GMP [1]) | normalized RNA/DNA level with ligand (log10) (cyclic di-GMP [2]) |
| --- | --- | --- |
| GAUGGG | 1.54 ± 0.081 | 1.67 ± 0.16 |
| GAUGGC | 1.68 ± 0.051 | 1.8 ± 0.13 |
| GAUGGU | 1.64 ± 0.057 | 1.8 ± 0.063 |
| UAGUCG | 1.8 ± 0.021 | 1.91 ± 0.14 |
| UAGUCA | 1.768 ± 0.017 | 1.91 ± 0.076 |
| UAGUCU | 1.707 ± 0.015 | 1.84 ± 0.053 |
| UAUAGG | 1.68 ± 0.023 | 1.85 ± 0.11 |
| GAUCUU | 1.673 ± 0.0037 | 1.8 ± 0.091 |
| GAUCUA | 1.67 ± 0.032 | 1.81 ± 0.097 |
| GAUCUG | 1.708 ± 0.016 | 1.84 ± 0.07 |
| GAUCUC | 1.75 ± 0.02 | 1.89 ± 0.15 |
| AAUUAG | 1.6 ± 0.029 | 1.76 ± 0.11 |
| AAUUAU | 1.67 ± 0.03 | 1.82 ± 0.1 |
| AAUUAC | 1.72 ± 0.068 | 1.83 ± 0.099 |
| GAUGAC | 1.65 ± 0.019 | 1.82 ± 0.12 |
| GAUGAG | 1.55 ± 0.067 | 1.71 ± 0.059 |
| GAUGAA | 1.45 ± 0.1 | 1.65 ± 0.067 |
| GAUGAU | 1.56 ± 0.064 | 1.75 ± 0.099 |
| GAUUCG | 1.7482 ± 0.0012 | 1.88 ± 0.06 |
| GAUUCA | 1.72 ± 0.021 | 1.85 ± 0.064 |
| GAUUCC | 1.8 ± 0.097 | 1.87 ± 0.14 |
| GAUUCU | 1.748 ± 0.014 | 1.86 ± 0.12 |
| CAUGGU | 1.648 ± 0.0024 | 1.77 ± 0.16 |

| Variant | normalized RNA/DNA level without ligand (log10) (cyclic di-GMP [1]) | normalized RNA/DNA level with ligand (log10) (cyclic di-GMP [2]) |
| --- | --- | --- |
| CAUGGC | 1.715 ± 0.005 | 1.84 ± 0.09 |
| CAUGGG | 1.682 ± 0.0032 | 1.84 ± 0.094 |
| GAUGCG | 1.82 ± 0.063 | 1.89 ± 0.13 |
| GAUGCC | 1.772 ± 0.014 | 1.84 ± 0.1 |
| GAUGCU | 1.73 ± 0.033 | 1.85 ± 0.12 |
| UAUACC | 1.76 ± 0.053 | 1.86 ± 0.1 |
| UAUACG | 1.75 ± 0.029 | 1.85 ± 0.11 |
| UAUACA | 1.711 ± 0.0027 | 1.85 ± 0.12 |
| AAUAGC | 1.62 ± 0.047 | 1.8 ± 0.1 |
| CAGGUA | 1.57 ± 0.081 | 1.67 ± 0.11 |
| CAGGUU | 1.798 ± 0.0047 | 1.88 ± 0.053 |
| CAGGUG | 1.62 ± 0.056 | 1.76 ± 0.084 |
| CAGGUC | 1.76 ± 0.021 | 1.84 ± 0.094 |
| UAUAAG | 1.66 ± 0.03 | 1.82 ± 0.14 |
| UAUAAC | 1.697 ± 0.015 | 1.85 ± 0.12 |
| UAUAAU | 1.66 ± 0.063 | 1.8 ± 0.099 |
| GAUCCC | 1.79 ± 0.027 | 1.89 ± 0.082 |
| GAUCCG | 1.88 ± 0.068 | 1.95 ± 0.15 |
| GAUCCU | 1.7 ± 0.025 | 1.84 ± 0.13 |
| GAUCCA | 1.71 ± 0.032 | 1.85 ± 0.1 |
| CAUCCU | 1.6 ± 0.03 | 1.77 ± 0.1 |
| CAUCCG | 1.82 ± 0.035 | 1.88 ± 0.09 |
| CAUCAU | 1.56 ± 0.064 | 1.72 ± 0.072 |

| Variant | normalized RNA/DNA level without ligand (log10) (cyclic di-GMP [1]) | normalized RNA/DNA level with ligand (log10) (cyclic di-GMP [2]) |
| --- | --- | --- |
| CAUCAG | 1.69 ± 0.044 | 1.76 ± 0.13 |
| CAUCAC | 1.67 ± 0.027 | 1.8 ± 0.069 |
| AAUCCU | 1.73 ± 0.073 | 1.86 ± 0.11 |
| AAUCCA | 1.65 ± 0.025 | 1.79 ± 0.088 |
| AAUCCG | 1.83 ± 0.037 | 1.93 ± 0.028 |
| AAUCCC | 1.77 ± 0.032 | 1.86 ± 0.087 |
| UAUGGA | 1.53 ± 0.017 | 1.73 ± 0.098 |
| UAUGGG | 1.57 ± 0.078 | 1.73 ± 0.1 |
| UAUGGC | 1.708 ± 0.015 | 1.82 ± 0.12 |
| AAUGCG | 1.704 ± 0.0078 | 1.82 ± 0.15 |
| AAUGCU | 1.73 ± 0.036 | 1.85 ± 0.12 |
| AAUGCA | 1.666 ± 0.0048 | 1.78 ± 0.14 |
| AAUGCC | 1.73 ± 0.034 | 1.83 ± 0.11 |
| UAGUGU | 1.62 ± 0.034 | 1.81 ± 0.13 |
| UAGUGC | 1.69 ± 0.024 | 1.82 ± 0.13 |
| GAGUAC | 1.8 ± 0.059 | 1.87 ± 0.11 |
| GAGUAU | 1.79 ± 0.024 | 1.86 ± 0.099 |
| CAUGUU | 1.72 ± 0.043 | 1.88 ± 0.085 |
| CAUGUG | 1.71 ± 0.022 | 1.85 ± 0.092 |
| CAUGUC | 1.72 ± 0.035 | 1.82 ± 0.088 |
| CAUGUA | 1.44 ± 0.081 | 1.65 ± 0.072 |
| AAGGUC | 1.61 ± 0.034 | 1.75 ± 0.077 |
| AAUCUU | 1.74 ± 0.09 | 1.86 ± 0.1 |

| Variant | normalized RNA/DNA level without ligand (log10) (cyclic di-GMP [1]) | normalized RNA/DNA level with ligand (log10) (cyclic di-GMP [2]) |
| --- | --- | --- |
| AAUCUA | 1.55 ± 0.055 | 1.75 ± 0.071 |
| AAUCUC | 1.74 ± 0.032 | 1.86 ± 0.075 |
| AAUCUG | 1.62 ± 0.031 | 1.8 ± 0.061 |
| GAUACG | 1.62 ± 0.019 | 1.76 ± 0.12 |
| GAUACU | 1.7 ± 0.025 | 1.82 ± 0.068 |
| GAUACC | 1.758 ± 0.0066 | 1.89 ± 0.066 |
| AAGUCA | 1.63 ± 0.06 | 1.77 ± 0.14 |
| AAGUCC | 1.76 ± 0.051 | 1.84 ± 0.085 |
| AAGUCU | 1.68 ± 0.058 | 1.8 ± 0.12 |
| AAGUCG | 1.62 ± 0.031 | 1.79 ± 0.089 |
| UAGUAA | 1.652 ± 0.0068 | 1.8 ± 0.12 |
| UAGUAC | 1.68 ± 0.037 | 1.8 ± 0.12 |
| UAGUAG | 1.7 ± 0.036 | 1.84 ± 0.1 |
| CAUGAG | 1.714 ± 0.012 | 1.84 ± 0.074 |
| CAUGAU | 1.57 ± 0.027 | 1.73 ± 0.13 |
| AAUGAC | 1.63 ± 0.018 | 1.79 ± 0.081 |
| CAGUAG | 1.724 ± 0.013 | 1.83 ± 0.096 |
| CAGUAC | 1.6 ± 0.018 | 1.74 ± 0.14 |
| UAUCAA | 1.7 ± 0.031 | 1.83 ± 0.11 |
| UAUCAG | 1.72 ± 0.028 | 1.84 ± 0.13 |
| UAUCAU | 1.656 ± 0.0018 | 1.81 ± 0.12 |
| AAUCAG | 1.61 ± 0.057 | 1.76 ± 0.026 |
| AAUCAA | 1.51 ± 0.1 | 1.73 ± 0.078 |

| Variant | normalized RNA/DNA level without ligand (log10) (cyclic di-GMP [1]) | normalized RNA/DNA level with ligand (log10) (cyclic di-GMP [2]) |
| --- | --- | --- |
| AAUCAU | 1.64 ± 0.02 | 1.78 ± 0.093 |
| AAUCAC | 1.71 ± 0.027 | 1.83 ± 0.096 |
| GAGUGC | 1.785 ± 0.006 | 1.86 ± 0.13 |
| GAGUGA | 1.71 ± 0.033 | 1.79 ± 0.14 |
| GAGUGU | 1.77 ± 0.049 | 1.89 ± 0.09 |
| GAGUGG | 1.84 ± 0.043 | 1.9 ± 0.12 |
| GAUGUU | 1.62 ± 0.037 | 1.78 ± 0.086 |
| GAUGUC | 1.7082 ± 0.001 | 1.87 ± 0.12 |
| GAUGUG | 1.71 ± 0.032 | 1.8 ± 0.1 |
| GAUCAG | 1.8 ± 0.054 | 1.9 ± 0.13 |
| GAUCAC | 1.727 ± 0.016 | 1.84 ± 0.085 |
| UAUGUC | 1.73 ± 0.034 | 1.85 ± 0.099 |
| UAUGUU | 1.65 ± 0.008 | 1.79 ± 0.15 |
| UAUGUG | 1.71 ± 0.047 | 1.86 ± 0.13 |
| GAUAGG | 1.573 ± 0.0085 | 1.73 ± 0.087 |
| GAUAGC | 1.64 ± 0.019 | 1.76 ± 0.14 |
| GAUAGA | 1.46 ± 0.11 | 1.64 ± 0.094 |
| GAUAGU | 1.62 ± 0.045 | 1.78 ± 0.1 |
| UAUUCA | 1.8 ± 0.032 | 1.88 ± 0.053 |
| UAUUCC | 1.77 ± 0.029 | 1.88 ± 0.12 |
| UAUUCG | 1.756 ± 0.0047 | 1.87 ± 0.13 |
| AAGUGG | 1.68 ± 0.033 | 1.78 ± 0.12 |
| AAGUGC | 1.666 ± 0.0039 | 1.82 ± 0.14 |
